Test: label from the status in PepcDB records

Sequence	protein production
MNRRGGQTAFAAIARNERAIAAFIPYSSHLTDTTLITHGADLVRTWRVQGIAFESAEPELVSQRHEQLNGLWRAISCEQVALWIHCIRRKTQAGLDARYENPFCRALDASYNARLNARQAMTNEFYLTLVYRPGHAALGKRAHHGQAEVRRQLLAHVRRMDEIGSLIETTLRSHGENHEQAITVLGCETDSAGRRYSRTLTLLEFLLTGHWQPVRVPAGPVDAYLGSSRILAGAEMMELRAPTCRRYAQFIDFKEYGTHTEPGMLNALLYEDYEYVITHSFSAVGKRQALAYLQRQRAQLANVQDAAYSQIDDLAHAEDALVNGDFVIGEYHFSMMILGADPRQLRRDVSSAMTRIQERGFLATPVTLALDAAFYAQLPANWAYRSRKAMLTSRNFAGLCSFHNFYGGKRDGNPWGPALSLLSTPSGQPFYFNFHHSGLDEDCRGQMMLGNTRIIGQSGSGKTVLLNFLLCQLQKFRSADADGLTTIFFDKDRGAEICIRALDGQYLRIRDGEPTGFNPLQLPCTDRNVMFLDSLLAMLARAHDSPLTSAQHATLATAVRTVLRMPASLRRMSTLLQNITQATSEQRELVRRLGRWCRDDGAGGTGMLWWVFDNPNDCLDFSRPGNYGIDGTAFLDNAETRTPISMYLLHRMNEAMDGRRFVYLMDEAWKWIDDPAFAEFAGDQQLTIRKKNGLGVFSTQMPSSLLGARVAASLVQQCATEIYLPNPRADRAEYLDGFKCTETEYQLIRSMAEDSHLFLVKQGRQAVVAQLDLSGMDDELAILSGNARNLRCFEQALALTRERDPNDWIAVFHRLRREASAGLR	failed
MHLSLALLVLLFSLILSNVINRIFPRLPLPLIQIIFGVGIGFLLKGEVFELETELFLAFIIAPLLFREGEESDITSILRNWKLILFLIFPVIFVSTLGIGYLAKAVLPASVPLSACLALGAALGPTDFVAYSAISKRFSFPKWISYILQGEGLLNDASGLVAFRVAVTALTTGSFSLLDASWNLVISVIGGFLVGLITALLNRLFLTILDNMDAADVTGALLLELVLPIPSYFVAEEIHVSGIIAVVVAGISLASRFKKITVFDAKLDSVSHTIWGTITFVLNGMVFFLLGTELPTLATPVLSSSTYDTLWMLLAIVLLTAIMFGIRFVMISAVFAQRAWRTKRSLKKIWKVATILTFSGVKGTVSIATILLLPVANMTALEHSLLTFTVAGVTLLSFLIGILILPRLATGPAHTTNHYMQIAILNDVVRELEKDLKQSANQGAVYATIDNYNQRLEDLILEQESNDVKEELANIRIMIMEIESEGLEYAYKKGKISELEYNLYQRYIKGLERRINRGFVSSLSYASAVFVLGLRRILHLAFTFKFRFEQEENRRGPQLTEENRDHMTELYLTNTEQVLEALSNLEGVYHSDLLSYLKRSRIREAEIIQSGAFVERVITHLNPDYVDEMLRGYFLERKIIIEYEQAGRISSRYAKQLRKEVNTLENYSLKETSNTLIYDMINLARRGA	failed
MRFSREALLELEASRLAPYAQKARDTRGRAHPEPESLYRTPYQKDRDRILHTTAFRRLEYKTQVLPGWAGDYYRTRLTHTLEVAQVSRSIARALGLNEDLTEAIALSHDLGHPPFGHTGEHVLNALMQDHGGFEHNAQALRILTHLEVRYPGFRGLNLTYEVLEGIATHEAAYSPGFKPLYEGQGTLEAQVVDLSDAIAYAAHDLDDGLRAGLLHPEELKEVELLQALALEEGLDLLRLPELDRRVLVRQLLGYFITAAIEATHRRVEEAGVQSAEAVRRHPSRLAALGEEAEKALKALKAFLMERFYRHPEVLRERRKAEAVLEGLFAAYTRYPELLPREVQAKIPEEGLERAVCDYIAGMTDRFALEAYRRLSP	not failed
MVDTTILAQALGFISFGLGFSVFYQKNDRHLKILMLIFNLNHLLHFLLLGSMVSALSALLSALRTTTAIFVSSKRVAAVFIVISLVSGFWVAEQWRDLWPIIGTVIGTYSVFCLSGIRMRIGFLLGASCWLTNNILVGSIGGTLLEMTVIVMNLLTIYRLHRQQSESMINQSSY	failed
MELKNKKLSLWEAVSMAVGVMIGASIFSIFGVGAKIAGRNLPETFILSGIYALLVAYSYTKLGAKIVSNAGPIAFIHKAIGDNIITGALSILLWMSYVISIALFAKGFAGYFLPLINAPINTFNIAITEIGIVAFFTALNFFGSKAVGRAEFFIVLVKLLILGLFIFAGLITIHPSYVIPDLAPSAVSGMIFASAIFFLSYMGFGVITNASEHIENPKKNVPRAIFISILIVMFVYVGVAISAIGNLPIDELIKASENALAVAAKPFLGNLGFLLISIGALFSISSAMNATIYGGANVAYSLAKDGELPEFFERKVWFKSTEGLYITSALGVLFALLFNMEGVASITSAVFMVIYLFVILSHYILIDEVGGRKEIVIFSFIVVLGVFLLLLYYQWITNRFVFYGIIATFIGVLIFEIIYRKVTKRTFSNNMYVKS	not failed

— a protein production outcome set (Wang et al. 2014)
